Values belong to the binder of their own block, whether it stands above or below them.
Target: T1, Full length of LAG-3 (human LAG-3 over-expressed on CHO-S cells) (human, UniProt P18627 23-525)
T1 construct: also called LAG-3 over-expressing CHO-S cells; full-length LAG-3
T1 sequence: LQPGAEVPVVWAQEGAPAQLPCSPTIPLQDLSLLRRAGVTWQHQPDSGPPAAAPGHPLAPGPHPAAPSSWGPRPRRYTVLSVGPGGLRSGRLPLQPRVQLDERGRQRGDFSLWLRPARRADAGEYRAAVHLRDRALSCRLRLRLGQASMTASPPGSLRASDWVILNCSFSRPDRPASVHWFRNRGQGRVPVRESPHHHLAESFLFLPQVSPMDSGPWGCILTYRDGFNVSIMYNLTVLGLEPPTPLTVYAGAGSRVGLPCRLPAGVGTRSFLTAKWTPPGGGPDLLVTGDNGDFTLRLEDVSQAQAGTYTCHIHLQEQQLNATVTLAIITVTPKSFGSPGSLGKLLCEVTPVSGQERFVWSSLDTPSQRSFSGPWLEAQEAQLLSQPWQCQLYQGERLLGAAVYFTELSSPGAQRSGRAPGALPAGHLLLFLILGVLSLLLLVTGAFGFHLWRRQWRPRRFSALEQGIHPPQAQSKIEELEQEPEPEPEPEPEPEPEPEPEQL
Experiment: cell ELISA on fixed CHO-S cells overexpressing full-length human LAG-3
Method: 100 μl/well of cells were seeded into 96-well plate at a density of 4×10⁵/ml and incubated overnight. The supernatant was discarded, and the plate was washed three times with PBS, and was fixed with 4% PFA (100 μl/well) for half an hour at room temperature, and then the plate was washed three times with PBS. After discarding the liquid, the plate was blocked with 200 μl/well of blocking solution containing 5% skim milk (Bright Dairy, skim milk powder) diluted in PBS, and incubated at 37° C. for 2.5 hours. After blocking, the blocking solution was discarded and the plate was washed 5 times with PBST buffer (PH7.4 PBS containing 0.05% tween-20), added with 50 μl/well of various concentrations of antibodies to be tested (Hybridoma purified antibody or humanized antibody) which have been diluted with sample diluent, and then incubated in incubator at 37° C. for 1 h. The plate was washed 5 times with PBST after incubation, added with 100 μl/well of goat anti-mouse (Jackson Immuno Research, Cat No. 115-035-003) or goat anti-human secondary antibody (Jackson Immuno Research, Cat No. 109-035-003) labeled with HRP, diluted in sample diluent, and the plate was incubated at 37° C. for 1 h. […]

EC50: 0.279 nM
B1: mAb303 (antibody, V domains shown)
VH: EVQLQQSGPVLVKPGASVKMSCKASGYTLTDYYMNWVKQSHGKSLEWIGVINPYNGDTAYNQKFKGKATLTVDKSSNTAYMEINSLTSEDSAVYYCTRDDGYYDYYFDVWGTGTTVTVSS
VL: DIQMTQSPSSLSASLGERVILTCRASQDIGSRLNWLQQGPDGTFKRLIYATSTLDSGVPKRFSGSRSGSDFSLTISSLESEDFVDYYCLQLASSPPTFGGGTKLEIK
notes: Murine hybridoma antibody; also called LAG-3 antibody mAb303; hybridoma clone mAb303

EC50: 0.191 nM
B2: mAb229 (antibody, V domains shown)
VH: QIQLVQSGPELKKPGETVKISCKASGYTFTTSGMSWVKQAPGKGLKWMGWINTYSGVPTYADDFKGRFAFSLETSASTAYLQINNLKNEDTATYFCARDNYDARDVYYYAMDYWGQGTSVTVSS
VL: DIQMTQSPASLSVSVGETVTITCRASENIYSNLAWYQQKQGKSPQLLVYAATNLADGVPSRFSGSGSGTQYSLKINSLQSEDFGSYYCQHFWITPWTFGGGTKLEIK
notes: Murine hybridoma antibody; also called LAG-3 antibody mAb229; hybridoma clone mAb229
